Laboratory results published in patent US20120107364A1 (ACTGEN, published 2012).

How the values were obtained:
[1] = target: T1, PODXL2, positions 1 to 360 (human, UniProt O00592 23-392); experiment: flow cytometry on Ba/F3 cells expressing the truncated PODXL2
T1 construct: One of the 14 C-terminal truncations; Expressed on Ba/F3 cells; also called R360
T1 sequence: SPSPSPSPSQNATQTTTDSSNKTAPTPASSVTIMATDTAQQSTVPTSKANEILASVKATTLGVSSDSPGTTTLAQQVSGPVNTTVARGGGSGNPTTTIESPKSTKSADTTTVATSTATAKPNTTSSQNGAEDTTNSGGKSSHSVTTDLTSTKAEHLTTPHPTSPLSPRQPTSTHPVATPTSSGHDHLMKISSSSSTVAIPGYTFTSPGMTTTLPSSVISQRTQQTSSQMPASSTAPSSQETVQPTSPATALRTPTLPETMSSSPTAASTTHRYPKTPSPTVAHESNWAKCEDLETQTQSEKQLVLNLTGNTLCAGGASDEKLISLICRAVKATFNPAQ
Procedure: (§1) To each sample of the cell suspension, 50 μl of the hybridoma culture supernatant or 2-μg/ml of the purified antibody (hereinafter, referred to as an “antibody solution”) was added, and the antibody was reacted with the cells. As an isotype control of the antibody solution, a wash buffer containing 2 μg/ml of each of mouse IgG1 (BioLegend, 400412), mouse IgG2a (BioLegend, 400224), and mouse IgG2b (BioLegend, 400324) was used. The hybridoma culture supernatant was reacted with the target cells at room temperature for 30 minutes, followed by centrifugation at 700×g for 2 minutes. Then, a culture supernatant was removed. Further, 100 μl of a wash buffer was added, followed by centrifugation at 700×g for 2 minutes again. A supernatant was removed. Then, the cells were washed.
(§2) Next, to the cell pellets after the washing, 50 μl of Goat anti-mouse IgG, F(ab′) 2-PE (PE=phycoerythrin, Beckman Coulter, IM0855) diluted 200-fold with a wash buffer was added as a secondary antibody for detection, and reacted in the dark at room temperature for 30 minutes. The reaction was followed by centrifugation at 700×g for 2 minutes. A supernatant was removed. Further, 100 μl of a wash buffer was added, followed by centrifugation at 700×g for 2 minutes again. A supernatant was removed. Then, the cells were washed. Thereafter, the cells were suspended in an appropriate amount of a wash buffer. The reactivity between the antibody and the cells was analyzed by a flow cytometer (Beckman Coulter, FC500 MPL).
(§3) Thereafter, by the same method as in Example 1 (4) (the virus packaging and thereafter), Ba/F3 cells containing the PODXL2 gene sequences of various chain lengths were prepared. Further, by the same method as in Example 4, the reactivity between the ACT36-27_{—}5D1 antibody and the Ba/F3 cells expressing the PODXL2 molecules of various chain lengths was analyzed by a flow cytometer (FIG. 10).

[2] = target: T2, PODXL2, positions 1 to 410 (human, UniProt O00592 23-442); experiment: as above
T2 construct: Encoded as positions 1-410 in pMX-SST and expressed on Ba/F3 cells; The vector-encoded part is not described; also called R410
T2 sequence: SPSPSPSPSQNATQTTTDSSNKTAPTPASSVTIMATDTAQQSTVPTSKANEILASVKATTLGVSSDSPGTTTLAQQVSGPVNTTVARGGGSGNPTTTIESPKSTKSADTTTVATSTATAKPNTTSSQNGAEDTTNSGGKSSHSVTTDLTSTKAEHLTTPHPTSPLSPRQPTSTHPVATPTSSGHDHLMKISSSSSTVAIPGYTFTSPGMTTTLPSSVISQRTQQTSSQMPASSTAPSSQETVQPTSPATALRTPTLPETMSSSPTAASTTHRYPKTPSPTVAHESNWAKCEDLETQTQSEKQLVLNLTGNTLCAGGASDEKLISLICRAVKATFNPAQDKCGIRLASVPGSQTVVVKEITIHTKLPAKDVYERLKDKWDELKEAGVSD
Procedure: as §1, §2, §3

[3] = target: T3, PODXL2, positions 1 to 320 (human, UniProt O00592 23-352); experiment: as above
T3 construct: One of the 14 C-terminal truncations; Expressed on Ba/F3 cells; also called R320
T3 sequence: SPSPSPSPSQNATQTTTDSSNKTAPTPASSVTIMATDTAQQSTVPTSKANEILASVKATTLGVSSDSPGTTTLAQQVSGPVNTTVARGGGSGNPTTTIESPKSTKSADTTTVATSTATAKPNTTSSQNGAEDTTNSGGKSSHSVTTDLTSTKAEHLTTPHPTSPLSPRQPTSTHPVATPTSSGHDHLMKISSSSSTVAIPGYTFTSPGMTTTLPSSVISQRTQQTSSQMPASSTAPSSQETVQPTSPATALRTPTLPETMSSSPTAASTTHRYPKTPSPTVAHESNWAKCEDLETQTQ
Procedure: as §1, §2, §3

[4] = target: T4, human-derived PODXL2 protein (Homo sapiens podocalyxin-like (PODXL), transcript variant 2, NM-005397.3), full … (human, UniProt O00592 23-558); experiment: flow cytometry on Ba/F3 cells expressing PODXL2 against negative control Ba/F3 cells (FIG. 1)
T4 construct: 526 amino acids; also called full-length PODXL2 gene
T4 sequence: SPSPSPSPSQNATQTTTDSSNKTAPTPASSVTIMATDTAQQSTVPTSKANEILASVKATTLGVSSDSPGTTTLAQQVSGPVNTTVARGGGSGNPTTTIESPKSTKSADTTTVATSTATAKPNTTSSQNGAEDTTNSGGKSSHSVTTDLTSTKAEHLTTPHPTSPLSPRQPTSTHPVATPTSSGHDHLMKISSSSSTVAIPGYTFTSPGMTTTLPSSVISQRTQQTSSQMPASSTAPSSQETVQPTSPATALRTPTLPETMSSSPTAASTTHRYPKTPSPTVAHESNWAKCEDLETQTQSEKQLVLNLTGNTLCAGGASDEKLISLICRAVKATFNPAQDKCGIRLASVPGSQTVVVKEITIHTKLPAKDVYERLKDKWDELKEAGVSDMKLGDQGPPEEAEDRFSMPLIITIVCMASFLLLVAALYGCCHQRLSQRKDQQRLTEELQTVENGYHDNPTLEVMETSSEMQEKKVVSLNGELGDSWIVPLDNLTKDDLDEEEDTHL
Procedure: as §1
as §2, with “Then, the cells were washed. Thereafter, the cells were suspended in an appropriate amount of a wash buffer.” left out

B1: ACT36-27-5D1 antibody (antibody, V domains shown)
VH: EVQLQQSGPELVKPGASVKMSCKASGYTFTSYVMHWVKQKPGQGLEWIGYIHPYNDGIKYNEKFKGKATLTSDKSSSTAYMDLSSLTSEDSAVYYCARSWDWYFDVWAAGTTVTVSS
VL: QIVLTQSPAIMSASPGEKVSMTCSASSSVSYMHWYQQKSGTSPKRWIYDTSKLASGVPARFSGSGSGTSYSLTISSMEAEDAATYYCLQWSSNPPTFGGGTKLE
notes: also called anti-PODXL2 antibody ACT36-27-5D1; anti-ACT36-27-5D1 monoclonal antibody
binding result [1]: no binding | binding result [2]: binds | binding result [3]: no binding | binding result [4]: binds
